Biological target: T1, Stt3p (yeast (endogenous), UniProt P39007 1-718, N-glycan at N539)
T1 sequence (looked up): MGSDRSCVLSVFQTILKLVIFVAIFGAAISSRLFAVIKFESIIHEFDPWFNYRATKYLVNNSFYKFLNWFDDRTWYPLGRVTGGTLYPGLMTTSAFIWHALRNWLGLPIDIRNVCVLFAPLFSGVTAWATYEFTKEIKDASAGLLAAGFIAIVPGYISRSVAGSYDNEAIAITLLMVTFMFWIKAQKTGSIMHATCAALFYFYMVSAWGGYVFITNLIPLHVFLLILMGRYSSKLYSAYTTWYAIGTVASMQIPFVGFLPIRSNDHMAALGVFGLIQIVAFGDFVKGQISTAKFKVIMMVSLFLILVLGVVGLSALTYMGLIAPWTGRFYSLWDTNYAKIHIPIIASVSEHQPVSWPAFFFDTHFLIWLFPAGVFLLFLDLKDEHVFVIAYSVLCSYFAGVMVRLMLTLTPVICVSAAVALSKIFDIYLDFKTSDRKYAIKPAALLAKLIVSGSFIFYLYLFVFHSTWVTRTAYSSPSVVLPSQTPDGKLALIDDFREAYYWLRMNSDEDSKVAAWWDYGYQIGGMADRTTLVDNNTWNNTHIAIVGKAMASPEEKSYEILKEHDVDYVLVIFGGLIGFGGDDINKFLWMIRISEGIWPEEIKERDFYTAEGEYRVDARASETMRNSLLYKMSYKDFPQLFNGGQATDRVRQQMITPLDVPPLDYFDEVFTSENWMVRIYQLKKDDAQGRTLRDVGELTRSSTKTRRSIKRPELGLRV
Assay: cryo-EM structure

B1: Ost6p (natural protein, yeast, UniProt Q03723 25-332, looked up)
chain: TASHNIDDILQLKDDTGVITVTADNYPLLSRGVPGYFNILYITMRGTNSNGMSCQLCHDFEKTYHAVADVIRSQAPQSLNLFFTVDVNEVPQLVKDLKLQNVPHLVVYPPAESNKQSQFEWKTSPFYQYSLVPENAENTLQFGDFLAKILNISITVPQAFNVQEFVYYFVACMVVFIFIKKVILPKVTNKWKLFSMILSLGILLPSITGYKFVEMNAIPFIARDAKNRIMYFSGGSGWQFGIEIFSVSLMYIVMSALSVLLIYVPKISCVSEKMRGLLSSFLACVLFYFFSYFISCYLIKNPGYPIVF
binding result: binds

Source: doi:10.1101/2021.05.17.443621 (bioRxiv, 2021)
